Test system: p1
Assay: p1 copy number by p1-encoded mKate2 fluorescence
Format: cell-based, S. cerevisiae
Settings: OR-Y24, measured in triplicate
Procedure: A calibration curve was established to correlate p1 copy number, determined via quantitative PCR (qPCR), with fluorescence of p1-encoded mKate2 (Table 1). Five TP-DNAP1 variants representing a wide range of copy numbers were transformed into ORY24 and passaged until w.t. p1 was displaced. The five OR-Y24 strains were grown to saturation, diluted 1:10,000 to mimic p1 fluctuation tests, and grown in triplicate 100 μL cultures and duplicate 40 mL cultures. 100 μL saturated cultures were subject to fluorescence measurement of mKate2 (ex/em=561 nm/620 nm, bandwidth=15 nm) on a flow cytometer (Invitrogen Attune NxT). Whole-cell DNA extracts were prepared from 40 mL cultures and used as templates for qPCR measurement of p1-encoded leu2 (Q180*), as described previously (Ravikumar et al., 2014). p1-encoded LEU2 was PCR amplified with qPCR-Leu2F and qPCR Leu2R; and genomic LEU3 was PCR amplified with qPCR-Leu3F and qPCR-Leu3R using SyBR Green (Fisher Scientific) master mix.
To assay p1 copy number for large-scale p1 fluctuation tests, additional replicates of OR-Y24 strains were grown from the 1:10,000 dilution in triplicate and saturated cultures were subject to fluorescence measurement via flow cytometry. Fluorescence measurements were converted to copy number with the linear calibration curve.
To assay relative p1 copy number for small-scale p1 fluctuation tests, an additional 200 μL culture of OR-Y24 strains were grown from the 1:10,000 dilution. 200 μL saturated cultures were subject to an OD600 measurement and fluorescence measurement of mKate2 (ex/em=588 nm/633 nm), using a microplate reader (TECAN Infinite M200 PRO). A linear relationship was assumed between p1 copy number and OD600-normalized mKate2 fluorescence. Copy numbers were calculated from normalization to a w.t. TP-DNAP1 control.
For a few large-scale p1 fluctuation tests, p1 copy number was assayed by the method of small scale p1 fluctuation tests (i.e. microplate reader measurement). For these experiments, mutant TP-DNAP1 p1 copy numbers were calculated by normalization to a w.t. TP-DNAP1 control. The copy number of this control was assumed to be the average w.t. TP-DNAP1 copy number from all large-scale p1 fluctuation tests that used flow cytometry measurements.
TP-DNAP1 plasmids were isolated from these strains and subject to Sanger sequencing. 210 unique variants were identified and the corresponding plasmids were re-transformed into OR-Y24. Transformed strains were passaged in SC-UH until w.t. p1 was displaced, and subject to p1 copy number measurement in triplicate. Four high copy variants were directly subject to qPCR measurements for validation. To test the suppressor activity of the G410H mutation, which yields increased p1 copy number, this amino acid change was added to several low-activity TP-DNAP1 variants. p1 copy number was similarly assayed for these strains.

B1: G410Y: TP-DNAP1 variant (protein)
chain: MDYKDKALNDLRNVYADFDSLPLDFRQILIKDRATLLQKEDVEKKILERQEDAKKYAEYLKQSEIPERISLPNIKRHKGVSISFEETSEDMVLEPRPFIFDGLNIRCFRRETIFSLKNKILNMVKESSSFKNVSRQSVSFMYFKIFNKGKVIASTKSVNIYEDKIDERLEDLCNNFDDVLKKIIDVTYGYESLFVSETYSYVIFYAKSIYFPQPRCVNNWGNNIPNILTFDSFKLFTANKNNVSCIKQCSRFLWQKDFNTLEEMIEYKNGNICIVTPQLHINDVRDIKSFNDIRLYSESPIKTFSVIDNTITYLFYFKEHLGVIFNITKSRHDRRVTKFSPLSKFSDVKNITVCFDIESYFDPEKESNQVNIPFICCASIIYNKVIGNIVDFEGRDCVAQMIEYVVDICYELNISSVELIAHNGGGYDFHYILSSMYNPAAIKNILIRNNSFISFNFAHDGVKFSVKDSYSFLLCSLANASKAFLNEETFKKTDFPHHDLKTADDLYKVYKEWSSVNTEINHVVEKEKLLITSEHIVNFTKNDKSKTLIEWSKDYCRNDVLVLSKVWLEFKNAVEDIFNCELVDQTMTLAGLSYKLFQANMPFDVELRHPNKEDYFNMREALIGGRCISVNGIYKDVLCLDVKSLYPASMAFYDQPYGSFKRVSSRPKDELGIYYVRVTPNRNNKSNFFPIRSHNKITYNNFEESTYIAWYTNVDIDIGLSEGHNIEYIPFDSYGNIGYSWSKKGKIFEKYIKDVLYKLKIKYEKQNNKVKRNVIKIIMNSLWGKFAQKWVNFEYFIKSEDDIDFESEEAYKIWDTDFMLIKKIKESTYSSKPIQNGVFTLSWARYHMKSIWDAGAKEGAECIYSDTDSIFVHKEHFKKNAKFMLNGLKVPIIGSEVGQLELECEFDKLLCAGKKQYMGFYTYFQDGKPCIKEKKRFKGIPSNYIIPELYAHLLSGADKEAKIQFLKFRREWGSVKGYIENKTVKAT
- Mean fold-increase over w.t. (p1 copy number): 2.73 fold

B2: E411A: TP-DNAP1 variant (protein)
chain: MDYKDKALNDLRNVYADFDSLPLDFRQILIKDRATLLQKEDVEKKILERQEDAKKYAEYLKQSEIPERISLPNIKRHKGVSISFEETSEDMVLEPRPFIFDGLNIRCFRRETIFSLKNKILNMVKESSSFKNVSRQSVSFMYFKIFNKGKVIASTKSVNIYEDKIDERLEDLCNNFDDVLKKIIDVTYGYESLFVSETYSYVIFYAKSIYFPQPRCVNNWGNNIPNILTFDSFKLFTANKNNVSCIKQCSRFLWQKDFNTLEEMIEYKNGNICIVTPQLHINDVRDIKSFNDIRLYSESPIKTFSVIDNTITYLFYFKEHLGVIFNITKSRHDRRVTKFSPLSKFSDVKNITVCFDIESYFDPEKESNQVNIPFICCASIIYNKVIGNIVDFEGRDCVAQMIEYVVDICGALNISSVELIAHNGGGYDFHYILSSMYNPAAIKNILIRNNSFISFNFAHDGVKFSVKDSYSFLLCSLANASKAFLNEETFKKTDFPHHDLKTADDLYKVYKEWSSVNTEINHVVEKEKLLITSEHIVNFTKNDKSKTLIEWSKDYCRNDVLVLSKVWLEFKNAVEDIFNCELVDQTMTLAGLSYKLFQANMPFDVELRHPNKEDYFNMREALIGGRCISVNGIYKDVLCLDVKSLYPASMAFYDQPYGSFKRVSSRPKDELGIYYVRVTPNRNNKSNFFPIRSHNKITYNNFEESTYIAWYTNVDIDIGLSEGHNIEYIPFDSYGNIGYSWSKKGKIFEKYIKDVLYKLKIKYEKQNNKVKRNVIKIIMNSLWGKFAQKWVNFEYFIKSEDDIDFESEEAYKIWDTDFMLIKKIKESTYSSKPIQNGVFTLSWARYHMKSIWDAGAKEGAECIYSDTDSIFVHKEHFKKNAKFMLNGLKVPIIGSEVGQLELECEFDKLLCAGKKQYMGFYTYFQDGKPCIKEKKRFKGIPSNYIIPELYAHLLSGADKEAKIQFLKFRREWGSVKGYIENKTVKAT
- Mean fold-increase over w.t. (p1 copy number): 2.08 fold

From US20230242902A1, “A HIGHLY ERROR-PRONE […] R[…] FOR TARGETED CONTINUOUS EVOLUTION IN VIVO” (The Regents of the University of California, priority 2017, published 2023)
